Article PMC3741172

Molecular target: Reelin from frontal cortex of non-demented (ND) subjects (human (endogenous in frontal cortex)) (UniProt P78509)
Assay: native gel or EMSA; blue native-PAGE of human frontal cortex extracts in 25 mM Bis-Tris pH 7.0, 0.5% DDM, 20% glycerol; samples not boiled; anti-Reelin immunoblot

stoichiometry N: 2
Substance: Reelin from frontal cortex of non-demented (ND) subjects (from UniProt P78509 26-3460) (natural protein)
